Assay results taken from patent US20120308513A1 (DENDREON, published 2012).

Experiments:
Assay in all cases: cell-based or functional assay
HLA-DRB1*0101 = HLA-DRB1*0101 (human)
HLA-DRB1*0102 = HLA-DRB1*0102 (human)
HLA-DRB1*0103 = HLA-DRB1*0103 (human)
HLA-DRB1*1503 = HLA-DRB1*1503 (human)
HLA-DRB1*160201 = HLA-DRB1*160201 (human)
HLA-DRB1*0301 = HLA-DRB1*0301 (human)
HLA-DRB1*0302 = HLA-DRB1*0302 (human)
HLA-DRB1*0401 = HLA-DRB1*0401 (human)
HLA-DRB1*0402 = HLA-DRB1*0402 (human)
HLA-DRB1*040301 = HLA-DRB1*040301 (human)
HLA-DRB1*040501 = HLA-DRB1*040501 (human)
HLA-DRB1*1101 = HLA-DRB1*1101 (human)
HLA-DRB1*1102 = HLA-DRB1*1102 (human)
HLA-DRB1*1103 = HLA-DRB1*1103 (human)
HLA-DRB1*1104 = HLA-DRB1*1104 (human)
HLA-DRB1*110401 = HLA-DRB1*110401 (human)
HLA-DRB1*1201 = HLA-DRB1*1201 (human)
HLA-DRB1*1301 = HLA-DRB1*1301 (human)
HLA-DRB1*1302 = HLA-DRB1*1302 (human)
HLA-DRB1*1401 = HLA-DRB1*1401 (human)
HLA-DRB1*1402 = HLA-DRB1*1402 (human)
HLA-DRB1*0701 = HLA-DRB1*0701 (human)
HLA-DRB1*080101 = HLA-DRB1*080101 (human)
HLA-DRB1*080201 = HLA-DRB1*080201 (human)
HLA-DRB1*0901 = HLA-DRB1*0901 (human)

Measured: IFNγ production by T cell clone HER500.23c21, HERp270-284 at 1 µg/mL presented by the homozygous EBV-LcL line (ELISA)

ALVTYNTDTFESMPN [HER500 peptide #63 (HERp270-284)]
> 4000 pg/mL: HLA-DRB1*0101 | HLA-DRB1*0102 | HLA-DRB1*0103 | HLA-DRB1*1503 | HLA-DRB1*160201 | HLA-DRB1*0301 | HLA-DRB1*0302 | HLA-DRB1*0401 | HLA-DRB1*0402 | HLA-DRB1*040301 | HLA-DRB1*040501 | HLA-DRB1*1101 | HLA-DRB1*1102 | HLA-DRB1*1103 | HLA-DRB1*1104 | HLA-DRB1*110401 | HLA-DRB1*1201 | HLA-DRB1*1301 | HLA-DRB1*1302 | HLA-DRB1*1401 | HLA-DRB1*1402 | HLA-DRB1*0701 | HLA-DRB1*080101 | HLA-DRB1*080201 | HLA-DRB1*0901
